# Assay results from patent publication US20220401557A1 (Chugai, published 2022).
# Target: CD3 on NFAT-RE-luc2-Jurkat cells (human, UniProt P07766 23-207)
# Test: cell-based or functional assay
# Chain of CD3 on NFAT-RE-luc2-Jurkat cells (P07766 23-207): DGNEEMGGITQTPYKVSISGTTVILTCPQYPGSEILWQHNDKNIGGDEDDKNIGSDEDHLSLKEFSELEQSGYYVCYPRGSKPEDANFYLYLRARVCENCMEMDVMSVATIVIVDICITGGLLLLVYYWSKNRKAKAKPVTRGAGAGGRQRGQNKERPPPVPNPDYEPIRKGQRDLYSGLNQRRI
Binder,"increase rate due to the protease treatment (luciferase, uPA-treated / untreated), antibody 0.1 nM","increase rate due to the protease treatment (luciferase, uPA-treated / untreated), antibody 1 nM"
"hCE115HAuPA27/GLS//GCH065 (bispecific antibody, human IgG1, kappa, N297A) heavy 1: QDGNEEMGGITQTPYKVSISGTTVILTLSGRSDNHQVQLVESGGGVVQPGRSLRLSCAASGFTFSNAWMHWVRQAPGKGLEWVAQIKAKSNNYATYYAESVKGRFTISRDDSKNSLYLQMNSLKTEDTAVYYCRYVHYGAYYGVDAWGQGTTVTVSSASTKGPSVFPLAPSSKSTSGGTAALGCLVKDYFPEPVTVSWNSGALTSGVHTFPAVLQSSGLYSLSSVVTVPSSSLGTQTYICNVNHKPSNTKVDKKVEPKSCDKTHTCPPCPAPELRGGPKVFLFPPKPKDTLMISRTPEVTCVVVDVSHEDPEVKFNWYVDGVEVHNAKTKPREEQYASTYRVVSVLTVLHQDWLNGKEYKCKVSNKALPAPIEKTISKAKGQPREPQVYTLPPSRKEMTKNQVSLTCLVKGFYPSDIAVEWESNGQPENNYKTTPPYLDSDGSFFLYSKLTVDKSRWQQGNVFSCSVMHEALHNHYTQKSLSLSP light 1: DIVMTQSPLSLPVTPGEPASISCRSSQSLVHSNRNTYLHWYQQKPGQAPRLLIYKVSNRFSGVPDRFSGSGSGTDFTLKISRVEAEDVGVYYCGQGTQVPYTFGQGTKLEIKRTVAAPSVFIFPPSDEQLKSGTASVVCLLNNFYPREAKVQWKVDNALQSGNSQESVTEQDSKDSTYSLSSTLTLSKADYEKHKVYACEVTHQGLSSPVTKSFNRGEC heavy 2: QVQLVQSGAEVKKPGASVTVSCKASGYTFTDYEMHWIRQPPGEGLEWIGAIDGPTPDTAYSEKFKGRVTLTADKSTSTAYMELSSLTSEDTAVYYCTRFYSYTYWGQGTLVTVSSASTKGPSVFPLAPSSKSTSGGTAALGCLVKDYFPEPVTVSWNSGALTSGVHTFPAVLQSSGLYSLSSVVTVPSSSLGTQTYICNVNHKPSNTKVDKKVEPKSCDKTHTCPPCPAPELRGGPKVFLFPPKPKDTLMISRTPEVTCVVVDVSHEDPEVKFNWYVDGVEVHNAKTKPREEQYASTYRVVSVLTVLHQDWLNGKEYKCKVSNKALPAPIEKTISKAKGQPREPQVYTLPPSREEMTKNQVSLTCLVKGFYPSDIAVEWESNGQPENNYKTTPPYLDSDGSFFLYSKLTVDKSRWQQGNVFSCSVMHEALHNHYTQESLSLSP light 2: DIVMTQSPLSLPVTPGEPASISCRSSQPLVHSNRNTYLHWYQQKPGQAPRLLIYKVSNRFSGVPDRFSGSGSGTDFTLKISRVEAEDVGVYYCGQGTQVPYTFGQGTKLEIKRTVAAPSVFIFPPSDEQLKSGTASVVCLLNNFYPREAKVQWKVDNALQSGNSQESVTEQDSKDSTYSLSSTLTLSKADYEKHKVYACEVTHQGLSSPVTKSFNRGEC",0.9 ratio,1.4 ratio
"AN/GLS//GCH065 (bispecific antibody, human IgG1, kappa, N297A) heavy 1: QVQLVESGGGLVQPGRSLRLSCAASGFTFSNAWMHWVRQAPGKGLEWVAQIKDKANGYNAYYAESVKGRFTISRDDSKNSIYLQMNSLKTEDTAVYYCRYVHYTTYAGFSYKFGVDAWGQGTTVTVSSASTKGPSVFPLAPSSKSTSGGTAALGCLVKDYFPEPVTVSWNSGALTSGVHTFPAVLQSSGLYSLSSVVTVPSSSLGTQTYICNVNHKPSNTKVDKKVEPKSCDKTHTCPPCPAPELRGGPKVFLFPPKPKDTLMISRTPEVTCVVVDVSHEDPEVKFNWYVDGVEVHNAKTKPREEQYASTYRVVSVLTVLHQDWLNGKEYKCKVSNKALPAPIEKTISKAKGQPREPQVYTLPPSRKEMTKNQVSLTCLVKGFYPSDIAVEWESNGQPENNYKTTPPYLDSDGSFFLYSKLTVDKSRWQQGNVFSCSVMHEALHNHYTQKSLSLSP light 1: DIVMTQSPLSLPVTPGEPASISCRSSQSLVHSNRNTYLHWYQQKPGQAPRLLIYKVSNRFSGVPDRFSGSGSGTDFTLKISRVEAEDVGVYYCGQGTQVPYTFGQGTKLEIKRTVAAPSVFIFPPSDEQLKSGTASVVCLLNNFYPREAKVQWKVDNALQSGNSQESVTEQDSKDSTYSLSSTLTLSKADYEKHKVYACEVTHQGLSSPVTKSFNRGEC heavy 2: QVQLVQSGAEVKKPGASVTVSCKASGYTFTDYEMHWIRQPPGEGLEWIGAIDGPTPDTAYSEKFKGRVTLTADKSTSTAYMELSSLTSEDTAVYYCTRFYSYTYWGQGTLVTVSSASTKGPSVFPLAPSSKSTSGGTAALGCLVKDYFPEPVTVSWNSGALTSGVHTFPAVLQSSGLYSLSSVVTVPSSSLGTQTYICNVNHKPSNTKVDKKVEPKSCDKTHTCPPCPAPELRGGPKVFLFPPKPKDTLMISRTPEVTCVVVDVSHEDPEVKFNWYVDGVEVHNAKTKPREEQYASTYRVVSVLTVLHQDWLNGKEYKCKVSNKALPAPIEKTISKAKGQPREPQVYTLPPSREEMTKNQVSLTCLVKGFYPSDIAVEWESNGQPENNYKTTPPYLDSDGSFFLYSKLTVDKSRWQQGNVFSCSVMHEALHNHYTQESLSLSP light 2: DIVMTQSPLSLPVTPGEPASISCRSSQPLVHSNRNTYLHWYQQKPGQAPRLLIYKVSNRFSGVPDRFSGSGSGTDFTLKISRVEAEDVGVYYCGQGTQVPYTFGQGTKLEIKRTVAAPSVFIFPPSDEQLKSGTASVVCLLNNFYPREAKVQWKVDNALQSGNSQESVTEQDSKDSTYSLSSTLTLSKADYEKHKVYACEVTHQGLSSPVTKSFNRGEC",0.6 ratio,0.7 ratio
"ANGS/GLS//GCH065 (bispecific antibody, human IgG1, kappa, N297A) heavy 1: QDGNEGGGSGGGSQVQLVESGGGLVQPGRSLRLSCAASGFTFSNAWMHWVRQAPGKGLEWVAQIKDKANGYNAYYAESVKGRFTISRDDSKNSIYLQMNSLKTEDTAVYYCRYVHYTTYAGFSYKFGVDAWGQGTTVTVSSASTKGPSVFPLAPSSKSTSGGTAALGCLVKDYFPEPVTVSWNSGALTSGVHTFPAVLQSSGLYSLSSVVTVPSSSLGTQTYICNVNHKPSNTKVDKKVEPKSCDKTHTCPPCPAPELRGGPKVFLFPPKPKDTLMISRTPEVTCVVVDVSHEDPEVKFNWYVDGVEVHNAKTKPREEQYASTYRVVSVLTVLHQDWLNGKEYKCKVSNKALPAPIEKTISKAKGQPREPQVYTLPPSRKEMTKNQVSLTCLVKGFYPSDIAVEWESNGQPENNYKTTPPYLDSDGSFFLYSKLTVDKSRWQQGNVFSCSVMHEALHNHYTQKSLSLSP light 1: DIVMTQSPLSLPVTPGEPASISCRSSQSLVHSNRNTYLHWYQQKPGQAPRLLIYKVSNRFSGVPDRFSGSGSGTDFTLKISRVEAEDVGVYYCGQGTQVPYTFGQGTKLEIKRTVAAPSVFIFPPSDEQLKSGTASVVCLLNNFYPREAKVQWKVDNALQSGNSQESVTEQDSKDSTYSLSSTLTLSKADYEKHKVYACEVTHQGLSSPVTKSFNRGEC heavy 2: QVQLVQSGAEVKKPGASVTVSCKASGYTFTDYEMHWIRQPPGEGLEWIGAIDGPTPDTAYSEKFKGRVTLTADKSTSTAYMELSSLTSEDTAVYYCTRFYSYTYWGQGTLVTVSSASTKGPSVFPLAPSSKSTSGGTAALGCLVKDYFPEPVTVSWNSGALTSGVHTFPAVLQSSGLYSLSSVVTVPSSSLGTQTYICNVNHKPSNTKVDKKVEPKSCDKTHTCPPCPAPELRGGPKVFLFPPKPKDTLMISRTPEVTCVVVDVSHEDPEVKFNWYVDGVEVHNAKTKPREEQYASTYRVVSVLTVLHQDWLNGKEYKCKVSNKALPAPIEKTISKAKGQPREPQVYTLPPSREEMTKNQVSLTCLVKGFYPSDIAVEWESNGQPENNYKTTPPYLDSDGSFFLYSKLTVDKSRWQQGNVFSCSVMHEALHNHYTQESLSLSP light 2: DIVMTQSPLSLPVTPGEPASISCRSSQPLVHSNRNTYLHWYQQKPGQAPRLLIYKVSNRFSGVPDRFSGSGSGTDFTLKISRVEAEDVGVYYCGQGTQVPYTFGQGTKLEIKRTVAAPSVFIFPPSDEQLKSGTASVVCLLNNFYPREAKVQWKVDNALQSGNSQESVTEQDSKDSTYSLSSTLTLSKADYEKHKVYACEVTHQGLSSPVTKSFNRGEC",1 ratio,1 ratio
"ANuPA04/GLS//GCH065 (bispecific antibody, human IgG1, kappa, N297A) heavy 1: QDGNEEMGGGSGGGSGGGSLSGRSDNHGGGSQVQLVESGGGLVQPGRSLRLSCAASGFTFSNAWMHWVRQAPGKGLEWVAQIKDKANGYNAYYAESVKGRFTISRDDSKNSIYLQMNSLKTEDTAVYYCRYVHYTTYAGFSYKFGVDAWGQGTTVTVSSASTKGPSVFPLAPSSKSTSGGTAALGCLVKDYFPEPVTVSWNSGALTSGVHTFPAVLQSSGLYSLSSVVTVPSSSLGTQTYICNVNHKPSNTKVDKKVEPKSCDKTHTCPPCPAPELRGGPKVFLFPPKPKDTLMISRTPEVTCVVVDVSHEDPEVKFNWYVDGVEVHNAKTKPREEQYASTYRVVSVLTVLHQDWLNGKEYKCKVSNKALPAPIEKTISKAKGQPREPQVYTLPPSRKEMTKNQVSLTCLVKGFYPSDIAVEWESNGQPENNYKTTPPYLDSDGSFFLYSKLTVDKSRWQQGNVFSCSVMHEALHNHYTQKSLSLSP light 1: DIVMTQSPLSLPVTPGEPASISCRSSQSLVHSNRNTYLHWYQQKPGQAPRLLIYKVSNRFSGVPDRFSGSGSGTDFTLKISRVEAEDVGVYYCGQGTQVPYTFGQGTKLEIKRTVAAPSVFIFPPSDEQLKSGTASVVCLLNNFYPREAKVQWKVDNALQSGNSQESVTEQDSKDSTYSLSSTLTLSKADYEKHKVYACEVTHQGLSSPVTKSFNRGEC heavy 2: QVQLVQSGAEVKKPGASVTVSCKASGYTFTDYEMHWIRQPPGEGLEWIGAIDGPTPDTAYSEKFKGRVTLTADKSTSTAYMELSSLTSEDTAVYYCTRFYSYTYWGQGTLVTVSSASTKGPSVFPLAPSSKSTSGGTAALGCLVKDYFPEPVTVSWNSGALTSGVHTFPAVLQSSGLYSLSSVVTVPSSSLGTQTYICNVNHKPSNTKVDKKVEPKSCDKTHTCPPCPAPELRGGPKVFLFPPKPKDTLMISRTPEVTCVVVDVSHEDPEVKFNWYVDGVEVHNAKTKPREEQYASTYRVVSVLTVLHQDWLNGKEYKCKVSNKALPAPIEKTISKAKGQPREPQVYTLPPSREEMTKNQVSLTCLVKGFYPSDIAVEWESNGQPENNYKTTPPYLDSDGSFFLYSKLTVDKSRWQQGNVFSCSVMHEALHNHYTQESLSLSP light 2: DIVMTQSPLSLPVTPGEPASISCRSSQPLVHSNRNTYLHWYQQKPGQAPRLLIYKVSNRFSGVPDRFSGSGSGTDFTLKISRVEAEDVGVYYCGQGTQVPYTFGQGTKLEIKRTVAAPSVFIFPPSDEQLKSGTASVVCLLNNFYPREAKVQWKVDNALQSGNSQESVTEQDSKDSTYSLSSTLTLSKADYEKHKVYACEVTHQGLSSPVTKSFNRGEC",1.9 ratio,3 ratio
